Where two headings read alike, the source gives them in different places.
Type: in vivo
Conditions: for Edema / Fatigue / Fever / Infusion-related reaction / Musculoskeletal pain / Others (Constitutional) / Weight decreased: Constitutional; for Constipation / Decreased appetite / Diarrhea / Gastritis/GI bleed / Nausea / Others (Gastrointestinal) / Stomatitis / Vomiting: Gastrointestinal; for Any adverse event: worst toxicity grade; for ALT increased / AST increased / Abdominal pain / Bilirubin raised / GGT increased: Hepatic; for Dermatitis / Hepatitis / Others immune-related: Immune-related; for Amylase increased / Anemia / Hypercreatinine / Hyperglycemia / Hypokalemia / Hyponatremia / Hypothyroidism / Leukopenia / Lipase increased / Neutropenia / Thrombocytopenia: Laboratory; for Dry skin / Others (Skin) / Pruritus / Rash, acneiform / Rash, maculopapular / Rash, urticarial: Skin
Protocol: All patients underwent a single treatment of conventional TACE within 28 days of study enrolment. Conventional TACE was performed by supra-selective cannulation of all the branches supplying the tumor. The emulsion was prepared by mixing iodised oil with cisplatin (1 mg/mL) in a 1:1 ratio. A maximum of 60 mL of emulsion was injected. Preparation of the emulsion was followed by embolisation with gelfoam (gelatin granules) pellets of 1 mm diameter mixed with 40 mg of gentamicin. At 28 days (plus or minus 3 days) after the completion of TACE, stereotactic body radiotherapy was delivered to all lesions. Patients were immobilised via a vacuum foam bag (Vac-Lok™; MEDTEC, IA, USA) and active breathing control to reduce liver motion. Imaging was performed on the inhale breath-hold contrast CT. Gross tumor volume was defined as a tumor focus that was visualised by contrast imaging. The clinical target volume was defined as gross tumor volume with expansion to include the area stained with iodised oil. The individualised planning target volume margins were formulated to compensate for respiratory motion and setup errors. Cone beam CT was acquired on board before each treatment. A radiation dose of 27.5-40.0 Gy in five fractions delivered daily was allowed per protocol. The prescription isodose encompassed 95% of the planning target volume. The final dose was determined such that a maximum tumoricidal dose could be delivered to tumors while respecting the tolerance dose of the organ at risk (Table 3). The radiotherapy toxicity was assessed by CTCAE; version 4.01.
All patients underwent baseline contrast-enhanced MRI of the liver and CT of the thorax. Treatment response evaluation was assessed with MRI after cycle 4, cycle 8, and cycle 12 of avelumab and every 12 weeks thereafter (plus or minus 7 days). Radiological imaging was reported using the modified Response Evaluation Criteria in Solid Tumors (mRECIST). A CT of the thorax was done every 26 weeks or at the time of radiological or clinical evidence of disease progression according to mRECIST criteria. All patients were discussed in a multidisciplinary team board meeting of surgeons specializing in liver transplantation and liver surgery, clinical oncologists, interventional radiologists, and diagnostic radiologists. This meeting was held once every 2 weeks to decide resectability and treatment failure. All patients underwent complete tumor staging to exclude distant metastasis before surgery. A board-certified radiologist conducted an independent blinded review in addition to the investigator review. Safety assessments were documented throughout the treatment period. Adverse events were graded according to the US National Cancer Institute Common Terminology Criteria for Adverse Events (CTCAE; version 4.01). The frequency, duration, and severity of adverse events were recorded.
The primary endpoint was the percentage of patients deemed to be amenable to curative treatment after conversion therapy. Amenability for curative treatment was fulfilled when one of the following criteria was met: either a sustained complete response or sustained partial response achieved for at least 2 months and if curative treatment could be performed (based on investigator's review). […] Post-hoc analyses included radiological response according to immune RECIST, correlation of clinical outcomes with BCLC stage, albumin-bilirubin score, radiological assessment criteria, biomarkers, and median time to treatment response.

avelumab
1 (3%) number of patients (%): Fever (Grade 1-2) | Vomiting (Grade 1-2) | Adverse event, Lead to discontinuation (Grade 3) | Adverse event, Lead to discontinuation (Grade 4) | Any adverse event (Grade 4) | Abdominal pain (Grade 1-2) | AST increased (Grade 3) | AST increased (Grade 4) | Hyperglycemia (Grade 1-2) | Neutropenia (Grade 1-2) | Pruritus (Grade 3) | Rash, maculopapular (Grade 3) | Rash, urticarial (Grade 3)
7 (21%) number of patients (%): Infusion-related reaction (Grade 1-2) | Weight decreased (Grade 1-2) | ALT increased (Grade 1-2) | Bilirubin raised (Grade 1-2)
8 (24%) number of patients (%): Pruritus (Grade 1-2)
3 (9%) number of patients (%): Others (Gastrointestinal) (Grade 1-2) | Hepatitis (Grade 3) | Hypercreatinine (Grade 1-2)
4 weeks: Median duration of dose interruption (seven patients with interruption)
0 (0%) number of patients (%): Edema (Grade 1-2) | Musculoskeletal pain (Grade 1-2) | Edema (Grade 3) | Fatigue (Grade 3) | Fever (Grade 3) | Infusion-related reaction (Grade 3) | Musculoskeletal pain (Grade 3) | Others (Constitutional) (Grade 3) | Weight decreased (Grade 3) | Edema (Grade 4) | Fatigue (Grade 4) | Fever (Grade 4) | Infusion-related reaction (Grade 4) | Musculoskeletal pain (Grade 4) | Others (Constitutional) (Grade 4) | Weight decreased (Grade 4) | Edema (Grade 5) | Fatigue (Grade 5) | Fever (Grade 5) | Infusion-related reaction (Grade 5) | Musculoskeletal pain (Grade 5) | Others (Constitutional) (Grade 5) | Weight decreased (Grade 5) | Gastritis/GI bleed (Grade 1-2) | Stomatitis (Grade 1-2) | Constipation (Grade 3) | Decreased appetite (Grade 3) | Diarrhea (Grade 3) | Gastritis/GI bleed (Grade 3) | Nausea (Grade 3) | Others (Gastrointestinal) (Grade 3) | Stomatitis (Grade 3) | Vomiting (Grade 3) | Constipation (Grade 4) | Decreased appetite (Grade 4) | Diarrhea (Grade 4) | Gastritis/GI bleed (Grade 4) | Nausea (Grade 4) | Others (Gastrointestinal) (Grade 4) | Stomatitis (Grade 4) | Vomiting (Grade 4) | Constipation (Grade 5) | Decreased appetite (Grade 5) | Diarrhea (Grade 5) | Gastritis/GI bleed (Grade 5) | Nausea (Grade 5) | Others (Gastrointestinal) (Grade 5) | Stomatitis (Grade 5) | Vomiting (Grade 5) | Adverse event, Lead to discontinuation (Grade 1-2) | Adverse event, Lead to discontinuation (Grade 5) | Any adverse event (Grade 5) | Abdominal pain (Grade 3) | Bilirubin raised (Grade 3) | GGT increased (Grade 3) | ALT increased (Grade 4) | Abdominal pain (Grade 4) | Bilirubin raised (Grade 4) | GGT increased (Grade 4) | ALT increased (Grade 5) | AST increased (Grade 5) | Abdominal pain (Grade 5) | Bilirubin raised (Grade 5) | GGT increased (Grade 5) | Others immune-related (Grade 3) | Dermatitis (Grade 4) | Hepatitis (Grade 4) | Others immune-related (Grade 4) | Dermatitis (Grade 5) | Hepatitis (Grade 5) | Others immune-related (Grade 5) | Amylase increased (Grade 1-2) | Lipase increased (Grade 1-2) | Hypothyroidism (Grade 1-2, first listing) | Amylase increased (Grade 3) | Anemia (Grade 3) | Hypercreatinine (Grade 3) | Hyperglycemia (Grade 3) | Hypokalemia (Grade 3) | Hyponatremia (Grade 3) | Hypothyroidism (Grade 3) | Leukopenia (Grade 3) | Lipase increased (Grade 3) | Neutropenia (Grade 3) | Thrombocytopenia (Grade 3) | Hypothyroidism (Grade 3, first listing) | Amylase increased (Grade 4) | Anemia (Grade 4) | Hypercreatinine (Grade 4) | Hyperglycemia (Grade 4) | Hypokalemia (Grade 4) | Hyponatremia (Grade 4) | Hypothyroidism (Grade 4) | Leukopenia (Grade 4) | Lipase increased (Grade 4) | Neutropenia (Grade 4) | Thrombocytopenia (Grade 4) | Hypothyroidism (Grade 4, first listing) | Amylase increased (Grade 5) | Anemia (Grade 5) | Hypercreatinine (Grade 5) | Hyperglycemia (Grade 5) | Hypokalemia (Grade 5) | Hyponatremia (Grade 5) | Hypothyroidism (Grade 5) | Leukopenia (Grade 5) | Lipase increased (Grade 5) | Neutropenia (Grade 5) | Thrombocytopenia (Grade 5) | Hypothyroidism (Grade 5, first listing) | Others (Skin) (Grade 1-2) | Rash, acneiform (Grade 1-2) | Dry skin (Grade 3) | Others (Skin) (Grade 3) | Rash, acneiform (Grade 3) | Dry skin (Grade 4) | Others (Skin) (Grade 4) | Pruritus (Grade 4) | Rash, acneiform (Grade 4) | Rash, maculopapular (Grade 4) | Rash, urticarial (Grade 4) | Dry skin (Grade 5) | Others (Skin) (Grade 5) | Pruritus (Grade 5) | Rash, acneiform (Grade 5) | Rash, maculopapular (Grade 5) | Rash, urticarial (Grade 5)
27 (82%) number of patients (%): Any adverse event (Grade 1-2)
4 (12%) number of patients (%): Decreased appetite (Grade 1-2) | Diarrhea (Grade 1-2) | Any adverse event (Grade 3) | Hyponatremia (Grade 1-2) | Thrombocytopenia (Grade 1-2)
6 (18%) number of patients (%): AST increased (Grade 1-2) | Hypokalemia (Grade 1-2) | Leukopenia (Grade 1-2)
9 (27%) number of patients (%): Fatigue (Grade 1-2) | Others (Constitutional) (Grade 1-2)
two: Permanent discontinuation due to immune-related adverse events (avelumab 10 mg/kg every 2 weeks after TACE and SBRT)
6 (9%) number of patients (%): Dry skin (Grade 1-2) | Rash, maculopapular (Grade 1-2)
2 (6%) number of patients (%): Constipation (Grade 1-2) | Nausea (Grade 1-2) | GGT increased (Grade 1-2) | ALT increased (Grade 3) | Dermatitis (Grade 1-2) | Hepatitis (Grade 1-2) | Dermatitis (Grade 3) | Rash, urticarial (Grade 1-2)
5 (15%) number of patients (%): Others immune-related (Grade 1-2) | Anemia (Grade 1-2) | Hypothyroidism (Grade 1-2)

— patent US20250195917A1, “SEQUENTIAL TRANSARTERIAL CHEMOEMBOLIZATION, STEREOTACTIC BODY RADIOTHERAPY, AND IMMUNOTHERAPY (START-FIT) FOR HEPATOCELLULAR CARCINOMA” (The University of Hong Kong, priority 2023, published 2025)
